Data: patent US20210317168

Target: purified MN gp120 (clade B), P05877

B1: Calcium-dependent serine protease, complement component 1s (C1s) of CHO cells (protein)
chain: EPTMHGEILSPNYPQAYPNEIEKTWDIEVPEGFGIRLYFTHLDMELSENCEYDSVQIISGGVEEGRLCGQRTSKNANSPIVEEFQMPYNKLQVIFRSDFSNEERFTGFAAYYAAVDINECTDFTDVPCSHFCNNFIGGYFCSCPPEYFLHDDMRNCGVNCSGNVFTALIGEISSPNYPSPYPENSRCEYQILLEEGFQVVVTIRREDFDVEPADSEGNCQDSLLFAAKNQLFGPYCGNGFPGPLTIETHSNTLDIVFQTDLTEQRKGWKLRYHGDPIPCPKEITANSVWVPEKAKYVFKDVVKISCVDGFEVVEGNVGSAFFYSTCQSNGQWSNSRLQCQPVDCGIPEPIQNGKVDDPENTVFGSVIQYSCEEPYYYMEHEEHGGEYRCAANGSWVNDELGIELPKCVPVCGVPTEPIALQQRIFGGFPAKIQSFPWQVFFESPRAGGALIDEYWVLTAAHVVEGNSDPSMYVGTTFVRMEHLANAQRLTAERVIIHPGWKPADDLETRTNFDNDIALVQLKDPVKMGPTVSPICLPGTSSEYNPSKNDLGLISGWGRTEKRNIVPQLKGAKLPVTSLEKCQQVKGENSKVRADDYVFTSNMICAGEKGVDSCQGDSGGAFALQVPNVKDPKFYVAGLVSWGKKCGTYGIYTKVKNYMDWIVKTMQENSVPSKD
proteolysis of gp120 in 10x concentrated CHO supernatant, western blot, with or without EGTA: inhibition of proteolysis of gp120 in CHO cell supernatant with EGTA, a calcium-chelating agent suggested that C1s is the major protease responsible for gp120 cleavage
